Sequences and labels used below:
B1: M10-A03 (Fab, V domains shown)
VH: EVQLLESGGGLVQPGGSLRLSCAASGFTFSPYPMQWVRQAPGKGLEWVSSISSSGGMTEYADSVKGRFTISRDNSKNTLYLQMNSLRAEDTAVYYCARDDYGGKGGAFDIWGQGTMVTVSS
VL: DIQMTQSPSSLSASVGDRVTITCRASQRISFYLNWFQQKPGKAPNLLIYGASSLQSGVPSRFSGSGSGTDFTLTISSLQPKDFGTYYCQQTFSTPNTFGQGTKLEIK
notes: Fab fragment (E. coli TG1); printed HC runs into the start of CH1
B2: M9-H02 (Fab, V domains shown)
VH: EVQLLESGGGLVQPGGSLRLSCAASGFTFSAYMMIWVRQAPGKGLEWVSVIYPSGGVTMYADSVKGRFTISRDNSKNTLYLQMNSLRAEDTAVYYCARGTVGASDAFDIWGQGTMVTVSS
VL: DIQMTQSPSSLSASVGDRVIITCRASRSIATYLNWYQQKPGKAPNLLIFGASTLQSGVPSRFSGSGSGTDFTLTISDLQPEDFATYYCQQSFSDPYTFGQGTNLEMK
notes: as for B1
B3: M11-A10 (Fab, V domains shown)
VH: EVQLLESGGGLVQPGGSLRLSCAASGFTFSNYWMMWVRQAPGKGLEWVSGIGSSGGFTSYADSVKGRFTISRDNSKNTLYLQMNSLRAEDTAVYYCAKGSYSDYGVFESWGQGTLVTVSS
VL: DIQMTQSPSSLSASVGDRVAITCRASQSIDTYLNWYQQKPGKAPKLLIYDASNLEIGVPSRFSGSGSGTDFTFIINSLQPEDVATYYCQHYLYAPYSFGQGTKLEIK
notes: as for B1
B4: M10-G09 (Fab, V domains shown)
VH: EVQLLESGGGLVQPGGSLRLSCAASGFTFSQYGMQWVRQAPGKGLEWVSSIRSSGGATRYADSVKGRFTISRDNSKNTLYLQMNSLRAEDTAVYYCARDGYYDSSGYPDYWGQGTLVTVSS
VL: DIQMTQSPSSLSASVGDSVTITCRASQSISGYINWYQQKAGKAPKLLIYAASSLQSGVPSRFSGSGSGTHFTLTISSLQPEDFATYYCQQYVSYPFTFGPGTKVDIK
notes: as for B1
B5: M11-E01 (Fab, V domains shown)
VH: EVQLLESGGGLVQPGGSLRLSCAASGFTFSTYEMYWVRQAPGKGLEWVSGIGSSGGMTMYADSVKGRFTISRDNSKNTLYLQMNSLRAEDTAMYYCAREQPGIAALQFWGQGTLVTVSS
VL: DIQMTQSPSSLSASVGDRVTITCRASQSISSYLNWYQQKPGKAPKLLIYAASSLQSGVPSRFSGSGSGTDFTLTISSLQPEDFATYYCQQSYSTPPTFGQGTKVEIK
notes: as for B1
B6: M9-H03 (Fab, V domains shown)
VH: EVQLLESGGGLVQPGGSLRLSCAASGFTFSWYSMGWVRQAPGKGLEWVSYIVPSGGYTMYADSVKGRFTISRDNSKNTLYLQMNSLRAEDTAVYYCARDPGVSYYYYGMDVWGQGTTVTVSS
VL: QYELTQAPSVSVAPGQTASITCSGDKLGNRYTSWYQQKPGQSPVLVIFQDNKRPSGIPERFSGSNSGNTATLTISGTQAMDEADYYCQALDSNTYVFGTGTKVTVL
notes: as for B1
B7: M9-F10 (Fab, V domains shown)
VH: EVQLLESGGGLVQPGGSLRLSCAASGFTFSDYDMEWVRQAPGKGLEWVSSISPSGGSTIYADSVKGRFTISRDNSKNTLYLQMNSLRAEDTAVYYCARQGLLTAFDIWGQGTMVTVSS
VL: DIQMTQSPSSLSASVGDRVTITCRASQSINTYLNWYQQKPGKAPKVLIHAASTLESGVPSRFSGSGSGTDFTLTISSLQPEDFATYYCQQSYSTPYTFGQGTKLEVR
notes: as for B1
B8: M10-F09 (Fab, V domains shown)
VH: EVQLLESGGGLVQPGGSLRLSCAASGFTFSNYDMMWVRQAPGKGLEWVSYISPSGGFTRYADSVKGRFTISRDNSKNTLYLQMNSLRAEDTATYYCAKDIYYYNWGPSHYFDSWGQGTLVTVSS
VL: DIQMTQSPSSLSASVGDRVTITCRASQTIDDDLIWYQQKPGRAPKLLIYAASSLQSGVPSRFSGSGSGTDFTLTITSLQPEDFATYYCQQSYNIPRTFGQGTKLESK
notes: as for B1
B9: M10-A12 (Fab, V domains shown)
VH: EVQLLESGGGLVQPGGSLRLSCAASGFTFSLYLMHWVRQAPGKGLEWVSSIYSSGGFTTYADSVKGRFTISRDNSKNTLYLQMNSLRAEDTAVYYCARDTDYGMDVWGQGTTVTVSS
VL: DIQMTQSPLSLSAFVGDRVTITCRASRDISVYLNWYQLKSGKAPKLLIYGASSLQSGVPSRFSGSGSGTDFTLTITSLQPEDFATYYCQQSYSIPFTFGGGTKVETK
notes: as for B1
B10: M11-E04 (Fab, V domains shown)
VH: EVQLLESGGGLVQPGGSLRLSCAASGFTFSMYHMNWVRQAPGKGLEWVSGIVSSGGVTFYADSVKGRFTISRDNSKNTLYLQMNSLRAEDTAVYYCARITTVTTGGAFDIWGQGTMVTVSS
VL: DIQMTQSPSSLSASVGDRVTITCRASQSISIYLTWYQHRPGKAPNLLIYGAATLQTGVPSRFSGSGSGTDFTLTIRGLQPEDFATYYCQQTFSLPRTFGQGTKLEIK
notes: as for B1
B11: M10-C11 (Fab, V domains shown)
VH: EVQLLESGGGLVQPGGSLRLSCAASGFTFSMYPMMWVRQAPGKGLEWVSYISPSGGMTDYADSVKGRFTISRDNSKNTLYLQMNSLRAEDMAVYYCARVAGSSDAFDIWGQGTMVTVSS
VL: DIQMTQSPSSLSASVGDRVTITCRASQSISIYLNWYQQKPEKAPKLLIFAASTLQSGVPSRFSGSGSGTDFTLTISNLQPEDFATYYCQQSHSIPPTFGLGTKVEVK
notes: as for B1
B12: M10-D11 (Fab, V domains shown)
VH: EVQLLESGGGLVQPGGSLRLSCAASGFTFSAYPMNWVRQAPGKGLEWVSRISSSGGNTSYADSVKGRFTISRDNSKNTLYLQMNSLRAEDTAVYYCALGYLGYWGQGTLVTVSS
VL: not shown
notes: as for B1
B13: M10-B09 (Fab, V domains shown)
VH: EVQLLESGGGLVQPGGSLRLSCAASGFTFSWYEMSWVRQAPGKGLEWVSRIWPSGGVTMYADSVKGRFTISRDNSKNTLYLQMNSLRAEDTAVYYCTRTSITTVGMDVWGQGTTVTVSS
VL: DIQMTQSPSSLSASVGDGVTITCRASQSISTYLNWYQQRPGKAPKLLIYGASSLQSGVPSRFSGSGSGTDFTLTISSLQREDFATYYCQQSFSTPWTFGQGTRVEIK
notes: Fab fragment (E. coli TG1); printed HC runs into the start of CH1; The HC is printed with an amber codon 'q' (LqMNSL), written here as Q
B14: M10-E06 (Fab, V domains shown)
VH: EVQLLESGGGLVQPGGSLRLSCAASGFTFSLYRMFWVRQAPGKGLEWVSSIWSSGGPTMYADSVKGRFTISRDNSKNTLYLQMNSLRAEDTAVYYCAREYPSTYYFDYWGQGTLVTVSS
VL: DIQMTQSPSSLSASVGDRVTITCRASQSISTYLNWYQQKPGKAPKLLIYGASSLQSGVPSRFSGSGSGTDFTLTISSLQPEDFTIYYCQQSYSDPYTFGQGTKLDIK
notes: as for B1
B15: M9-H04 (Fab, V domains shown)
VH: EVQLLESGGGLVQPGGSLRLSCAASGFTFSAYTMWWVRQAPGKGLEWVSSIWPSGGSTFYADSVKGRFTISRDNSKNTLYLQMNSLRAEDTAVYYCARTYDSSAGEVDYWGQGTLVTVSS
VL: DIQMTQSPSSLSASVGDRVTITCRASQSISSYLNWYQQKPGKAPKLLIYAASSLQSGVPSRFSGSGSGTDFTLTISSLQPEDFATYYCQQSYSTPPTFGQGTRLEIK
notes: as for B1
B16: M9-G08 (Fab, V domains shown)
VH: EVQLLESGGGLVQPGGSLRLSCAASGFTFSYYTMLWVRQAPGKGLEWVSSIYPSGGFTMYADSVKGRFTISRDNSKNTLYLQMNSLRAEDTAVYYCARVDTAMAMIDYWGQGTLVTVSS
VL: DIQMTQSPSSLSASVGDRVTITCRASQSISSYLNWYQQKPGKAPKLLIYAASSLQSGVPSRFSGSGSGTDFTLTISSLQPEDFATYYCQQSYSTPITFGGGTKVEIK
notes: as for B1

T1 sequence (P03952 20-390, chain 1 of 2): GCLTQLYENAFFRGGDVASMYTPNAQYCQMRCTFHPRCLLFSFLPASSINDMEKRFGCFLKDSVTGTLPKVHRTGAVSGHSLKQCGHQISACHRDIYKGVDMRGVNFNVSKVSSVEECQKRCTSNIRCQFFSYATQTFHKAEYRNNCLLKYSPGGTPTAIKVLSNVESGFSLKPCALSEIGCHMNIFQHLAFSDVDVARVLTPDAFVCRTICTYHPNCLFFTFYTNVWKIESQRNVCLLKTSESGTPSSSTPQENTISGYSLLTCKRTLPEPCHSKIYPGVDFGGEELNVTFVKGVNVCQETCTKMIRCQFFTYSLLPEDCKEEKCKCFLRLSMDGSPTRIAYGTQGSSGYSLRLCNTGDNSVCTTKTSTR
T1 sequence (P03952 391-638, chain 2 of 2): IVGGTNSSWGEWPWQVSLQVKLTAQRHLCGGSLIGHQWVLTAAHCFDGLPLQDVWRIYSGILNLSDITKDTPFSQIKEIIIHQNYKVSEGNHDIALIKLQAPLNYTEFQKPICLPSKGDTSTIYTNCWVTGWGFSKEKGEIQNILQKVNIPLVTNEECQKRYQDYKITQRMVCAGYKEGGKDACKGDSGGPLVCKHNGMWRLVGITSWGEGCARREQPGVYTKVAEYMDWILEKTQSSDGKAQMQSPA

This experiment concerns the target T1, human plasma kallikrein (human, UniProt P03952 20-390; P03952 391-638).
T1 construct: two disulfide-linked chains; also called pKal; human pKal
Put plainly: ELISA; signal on coated biotinylated human plasma kallikrein divided by signal on streptavidin; Fab. The text has this:
Abbreviations used: "T/B" is the ELISA signal obtained using of the target (biotinylated plasma kallikrein) divided by the ELISA signal of the "background" (streptavidin); both of which were coated on microtiter plates. "nd" is not determined. The symbol "q" refers to the amber suppressible stop codon (TAG), which is translated as glutamine (Q) in strains of E. coli such as the TG1 cells that were used to express the Fab fragments.
For orientation: In an ELISA, binding on a coated surface is turned into a signal by an enzyme label.
For B1, the “Human pKal ELISA (T/B)” value is 33.7 T/B (target signal / background signal).

Take B2: the “Human pKal ELISA (T/B)” value is 3.5 T/B (target signal / background signal).

For B3, the “Human pKal ELISA (T/B)” value is 25 T/B (target signal / background signal).

Turning to B4, the “Human pKal ELISA (T/B)” value is 7.1 T/B (target signal / background signal).

As to B5, the “Human pKal ELISA (T/B)” value was 11.7 T/B (target signal / background signal).

Turning to B6, the “Human pKal ELISA (T/B)” value is 4.4 T/B (target signal / background signal).

For B7, the “Human pKal ELISA (T/B)” value was 8.4 T/B (target signal / background signal).

As to B8, the “Human pKal ELISA (T/B)” value was 4.8 T/B (target signal / background signal).

Take B9: the “Human pKal ELISA (T/B)” value was 20.8 T/B (target signal / background signal).

Regarding B10, the “Human pKal ELISA (T/B)” value was 43.2 T/B (target signal / background signal).

On to B11, for which the “Human pKal ELISA (T/B)” value is 5.3 T/B (target signal / background signal).

In the case of B12, the “Human pKal ELISA (T/B)” value is 6.4 T/B (target signal / background signal).

On to B13, for which the “Human pKal ELISA (T/B)” value is 14.1 T/B (target signal / background signal).

B14: the “Human pKal ELISA (T/B)” value was 32.8 T/B (target signal / background signal).

Take B15: the “Human pKal ELISA (T/B)” value was 16.1 T/B (target signal / background signal).

B16: the “Human pKal ELISA (T/B)” value is 4.8 T/B (target signal / background signal).

These data come from US9266964.
